According to the supplement of paper PMC9112550, “Optimization of the antimicrobial peptide Bac7 by deep mutational scanning” (BMC Biology, 2022):

system: Escherichia coli TOP10; assay: shrunken log2 fold change of peptide-encoding DNA abundance (4.5 h post-induction vs induction); higher = less antimicrobial activity (less host growth inhibition); conditions: time post-induction: 4.5 h; library: site-saturation at positions 5, 18, 19, 20
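Further: peptides expressed intracellularly from a pBAD plasmid library in pooled LB shake-flask culture, induced with 0.3% L-arabinose, DNA abundance read by NGS, three biological replicates, DESeq2 with apeglm shrinkage.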

Sequence	shrunken log2 fold change
RRIRVRPPRLPRPRPRPYDAPRP	-0.294
RRIRPRPPRLPRPRPRPTYNPRP	-0.664
RRIRSRPPRLPRPRPRPQHRPRP	-0.222
RRIRRRPPRLPRPRPRPHNAPRP	2.48
RRIRERPPRLPRPRPRPAFVPRP	0.121
RRIRARPPRLPRPRPRPRFDPRP	0.236
RRIRDRPPRLPRPRPRPDTPPRP	0.0945
RRIRFRPPRLPRPRPRPPYIPRP	-0.282
RRIRARPPRLPRPRPRPIGTPRP	0.0903
RRIRSRPPRLPRPRPRPQDFPRP	-0.161
RRIRIRPPRLPRPRPRPKQEPRP	0.113
RRIRCRPPRLPRPRPRPRELPRP	0.506
RRIRNRPPRLPRPRPRPWGRPRP	0.0851
RRIRHRPPRLPRPRPRPFWQPRP	0.0187
RRIRIRPPRLPRPRPRPHGHPRP	-0.216
RRIRHRPPRLPRPRPRPWYYPRP	-1.47
RRIRPRPPRLPRPRPRPVREPRP	0.605
RRIRERPPRLPRPRPRPALWPRP	0.241
RRIRMRPPRLPRPRPRPLMWPRP	0.268
RRIRVRPPRLPRPRPRPNFPPRP	0.0508
RRIRTRPPRLPRPRPRPVEVPRP	-0.0848
RRIRRRPPRLPRPRPRPLLFPRP	0.278
RRIRTRPPRLPRPRPRPYLPPRP	-0.513
RRIRDRPPRLPRPRPRPPGLPRP	-0.317
RRIRYRPPRLPRPRPRPLNQPRP	-0.343

Sequence	shrunken log2 fold change
RRIRMRPPRLPRPRPRPPNNPRP	0.436
RRIRPRPPRLPRPRPRPCEGPRP	0.156
RRIRWRPPRLPRPRPRPKYYPRP	-0.84
RRIRYRPPRLPRPRPRPFICPRP	-0.579
RRIRTRPPRLPRPRPRPYETPRP	-0.00043
RRIRYRPPRLPRPRPRPDAQPRP	-0.0145
RRIRPRPPRLPRPRPRPYNNPRP	-1.25
RRIRHRPPRLPRPRPRPHLPPRP	-0.0497
RRIRSRPPRLPRPRPRPIYRPRP	0.0394
RRIRCRPPRLPRPRPRPHLEPRP	0.0414
RRIRVRPPRLPRPRPRPCHRPRP	-0.0177
RRIRMRPPRLPRPRPRPIAMPRP	0.0028
RRIRHRPPRLPRPRPRPYHPPRP	-0.00776
RRIRFRPPRLPRPRPRPTRVPRP	0.616
RRIRDRPPRLPRPRPRPWANPRP	0.0419
RRIRKRPPRLPRPRPRPRLCPRP	0.308
RRIRLRPPRLPRPRPRPHEYPRP	-0.0491
RRIRNRPPRLPRPRPRPANSPRP	-0.153
RRIRTRPPRLPRPRPRPPGRPRP	0.586
RRIRLRPPRLPRPRPRPQDRPRP	0.128
RRIRARPPRLPRPRPRPEYFPRP	0.188
RRIRRRPPRLPRPRPRPYTLPRP	-0.34
RRIRMRPPRLPRPRPRPLQGPRP	0.126
RRIRCRPPRLPRPRPRPIVRPRP	-0.793
RRIRYRPPRLPRPRPRPAPEPRP	0.134

Sequence	shrunken log2 fold change
RRIRCRPPRLPRPRPRPKPWPRP	0.275
RRIRERPPRLPRPRPRPATDPRP	-0.00755
RRIRLRPPRLPRPRPRPTWYPRP	-0.221
RRIRSRPPRLPRPRPRPYAIPRP	-0.228
RRIRCRPPRLPRPRPRPVYLPRP	-0.646
RRIRIRPPRLPRPRPRPTPKPRP	-0.0169
RRIRRRPPRLPRPRPRPTNCPRP	-0.197
RRIRGRPPRLPRPRPRPQHNPRP	-0.186
RRIRMRPPRLPRPRPRPHGKPRP	-0.0884
RRIRYRPPRLPRPRPRPKHNPRP	-0.68
RRIRNRPPRLPRPRPRPLFKPRP	-1.08
RRIRTRPPRLPRPRPRPMGRPRP	0.217
RRIRCRPPRLPRPRPRPSMLPRP	-0.727
RRIRHRPPRLPRPRPRPAHEPRP	0.0538
RRIRWRPPRLPRPRPRPPYSPRP	-0.262
RRIRGRPPRLPRPRPRPDYEPRP	0.19
RRIRQRPPRLPRPRPRPMMIPRP	-0.0862
RRIRNRPPRLPRPRPRPKDRPRP	-0.0176
RRIRYRPPRLPRPRPRPNELPRP	-0.717
RRIRWRPPRLPRPRPRPNSSPRP	-0.0636
RRIRHRPPRLPRPRPRPLEFPRP	0.0369
RRIRMRPPRLPRPRPRPFPNPRP	-0.288
RRIRERPPRLPRPRPRPWYNPRP	-0.174
RRIRTRPPRLPRPRPRPGFIPRP	-0.585
RRIRKRPPRLPRPRPRPTEKPRP	0.247
